B1: Origin recognition complex subunit 1 (Homo sapiens), Q13415 (parent)
chain: MAHYPTRLKTRKTYSWVGRPLLDRKLHYQTYREMCVKTEGCSTEIHIQIGQFVLIEGDDDENPYVAKLLELFEDDSDPPPKKRARVQWFVRFCEVPACKRHLLGRKPGAQEIFWYDYPACDSNINAETIIGLVRVIPLAPKDVVPTNLKNEKTLFVKLSWNEKKFRPLSSELFAELNKPQESAAKCQKPVRAKSKSAESPSWTPAEHVAKRIESRHSASKSRQTPTHPLTPRARKRLELGNLGNPQMSQQTSCASLDSPGRIKRKVAFSEITSPSKRSQPDKLQTLSPALKAPEKTRETGLSYTEDDKKASPEHRIILRTRIAASKTIDIREERTLTPISGGQRSSVVPSVILKPENIKKRDAKEAKAQNEATSTPHRIRRKSSVLTMNRIRQQLRFLGNSKSDQEEKEILPAAEISDSSSDEEEASTPPLPRRAPRTVSRNLRSSLKSSLHTLTKVPKKSLKPRTPRCAAPQIRSRSLAAQEPASVLEEARLRLHVSAVPESLPCREQEFQDIYNFVESKLLDHTGGCMYISGVPGTGKTATVHEVIRCLQQAAQANDVPPFQYIEVNGMKLTEPHQVYVQILQKLTGQKATANHAAELLAKQFCTRGSPQETTVLLVDELDLLWTHKQDIMYNLFDWPTHKEARLVVLAIANTMDLPERIMMNRVSSRLGLTRMCFQPYTYSQLQQILRSRLKHLKAFEDDAIQLVARKVAALSGDARRCLDICRRATEICEFSQQKPDSPGLVTIAHSMEAVDEMFSSSYITAIKNSSVLEQSFLRAILAEFRRSGLEEATFQQIYSQHVALCRMEGLPYPTMSETMAVCSHLGSCRLLLVEPSRNDLLLRVRLNVSQDDVLYALKDE

Variants of: B1
Details: with h4_bovin h4, P62803

Effect of a mutation on the interaction, disrupting interaction strength:
E94A
W88A
Y64A

Source: IntAct's records for PubMed 22398447
